Source: US20230382992A1 (Bristol-Myers Squibb, published 2023)

Molecular target: CD64 (UniProt P12314 16-288, limits assumed)
Assay: assay not described

Chain of CD64 (P12314 16-288 limits assumed): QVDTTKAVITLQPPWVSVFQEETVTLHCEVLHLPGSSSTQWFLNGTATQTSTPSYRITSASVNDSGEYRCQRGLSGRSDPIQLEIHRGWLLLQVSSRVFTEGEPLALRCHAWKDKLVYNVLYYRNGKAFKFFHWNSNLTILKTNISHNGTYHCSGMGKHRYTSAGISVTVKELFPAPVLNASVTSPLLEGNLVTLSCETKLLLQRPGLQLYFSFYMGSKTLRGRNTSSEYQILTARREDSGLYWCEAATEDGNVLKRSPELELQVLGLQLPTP

B1: TIM3.18.IgG1.3 (antibody)
heavy: QLQLQESGPGLVKPSETLSLTCTVSGGSISSRSYYWGWIRQPPGKGLEWIGSIYYSGFTYYQPSLKSRVTISVDTSKNQFSLKLSSVTAADTAVYYCATGGPYGDYAHWFEPWGQGTLVTVSSASTKGPSVFPLAPSSKSTSGGTAALGCLVKDYFPEPVTVSWNSGALTSGVHTFPAVLQSSGLYSLSSVVTVPSSSLGTQTYICNVNHKPSNTKVDKRVEPKSCDKTHTCPPCPAPEAEGAPSVFLFPPKPKDTLMISRTPEVTCVVVDVSHEDPEVKFNWYVDGVEVHNAKTKPREEQYNSTYRVVSVLTVLHQDWLNGKEYKCKVSNKALPAPIEKTISKAKGQPREPQVYTLPPSREEMTKNQVSLTCLVKGFYPSDIAVEWESNGQPENNYKTTPPVLDSDGSFFLYSKLTVDKSRWQQGNVFSCSVMHEALHNHYTQKSLSLSPGK
light: not shown
notes: Effectorless IgG1.3f (L234A, L235E, G237A); It was radioiodinated for the Scatchard assays; also called TIM3.18 (13A3) IgG1.3f (N60Q/D101E)
  binding result: no binding
